According to patent publication US7060681B2, “Compositions and methods for use of bioactive agents derived from sulfated and sulfonated amino acids” (Ecole Polytechnique Federale de Lausanne (EPFL), priority 2001, dated 2006):
Ends that are not written are not given here. * marks the point of attachment. SO3 = sulfate on the tyrosine hydroxyl group, O=S(=O)(O)*

What was measured:
VEGF165 = target: T1, VEGF165 (Homo sapiens, UniProt P15692); experiment: Colorimetric competitive bead assay with biotinylated VEGF165 in presence of heparin; type: binding; settings: about 0.25 nM biotinylated VEGF165; 1 or 10 equivalents of heparin
T1 construct: made in house; host or cells: E. coli AD494 (DE3)pLysS
T1 sequence (P15692 27-191 isoform P15692-4): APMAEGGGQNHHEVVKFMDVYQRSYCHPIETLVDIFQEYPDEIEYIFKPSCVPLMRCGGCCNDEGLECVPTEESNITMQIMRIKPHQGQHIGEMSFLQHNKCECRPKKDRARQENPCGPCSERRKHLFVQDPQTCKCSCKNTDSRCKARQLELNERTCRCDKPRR
Procedure: A colorimetric assay was used to screen the library. The assay employed two different precipitating, developing dyes. In this way, beads that bound VEGF165 selectively and through the sulfate functionality could be determined. A portion of the library (2–3 copies) was swelled with H2O and rinsed 3 times with TBS. The resin was subjected overnight to 0.1% albumin and 0.2% Tween in Tris buffered saline (TBS, blocking buffer) and then rinsed with TBS (2×) prior to adding 1 mL streptavidin alkaline phosphatase (diluted 1:1000 from a 1 mg/mL solution) and shaking for 2 hours. The resin was rinsed with TBS (5×) and 200 μL of 5-bromo-4-chloro-3-indoylphosphate p-toluidine salt/nitro blue tetrazolium chloride (BCIP/NBT) reagent was added to develop a blue/black color where the streptavidin alkaline phosphatase was present. Nonspecific adsorption of the streptavidin alkaline phosphatase was detected as blue/black stained beads. After 15 minutes, the resin was rinsed with TBS (5×) prior to adding 100 μL of about 0.25 nM of biotinylated VEGF165 in the presence or absence of 1 or 10 equivalents of heparin sodium salt (isolated from porcine intestinal mucosa) in 400 μL of blocking buffer. The mixture was shaken overnight, the solution removed, the resin washed with TBS (6×), and 1 mL streptavidin alkaline phosphatase (diluted 1:1000 from a 1 mg/mL solution) was added. […]

VEGF = target: T2, VEGF (Homo sapiens, UniProt P15692); experiment: Dissociation constant (KD) by surface plasma resonance (SPR); type: binding; settings: ± standard deviation
T2 sequence (P15692 27-191 isoform P15692-4): T1 sequence (P15692 27-191 isoform P15692-4)
Excerpt: The sequence from the highest ranked bead from the first library of Example 1, was synthesized as SY(SO3)DY(SO3)G (SEE SEQ ID NO: 17), and the peptide Y(SO3)Y(SO3)GGY(SO3)DY(SO3) (SEE SEQ ID NO: 14) from the library of this Example were both synthesized independently and the dissociation constant (KD) determined by surface plasma resonance (SPR). The peptides were compared to suramin, a known heparin mimic that inhibits angiogenesis. […] Using SPR, there was no detectible binding of the analogous desulfated peptides to VEGF.

Binding of VEGF165 to peptide bead in the presence of heparin (in words) (VEGF165)	Kd (VEGF) [µM]	Compound
bound		Y(SO3)Y(SO3)GGY(SO3)DY(SO3) (not fully specified (N-terminus); printed as Y(SO3)Y(SO3)GGY(SO3)DY(SO3))
	340	Cc1ccc(C(=O)Nc2ccc(S(=O)(=O)O)c3cc(S(=O)(=O)O)cc(S(=O)(=O)O)c23)cc1NC(=O)c1cccc(NC(=O)Nc2cccc(C(=O)Nc3cc(C(=O)Nc4ccc(S(=O)(=O)O)c5cc(S(=O)(=O)O)cc(S(=O)(=O)O)c45)ccc3C)c2)c1 [Suramin, suramin]
